For 1 substance, fold increase in co-immunoprecipitated Cdc42 after 1 min of CXCL8 over untreated cells results are on record in publication PMC3158102.

The target in the experiment is IQ motif containing GTPase activating protein 1 (IQGAP1), endogenous in differentiated HL-60 cells (human (endogenous in HL-60)) (UniProt P46940). Nature of the experiment: co-IP; rabbit anti-IQGAP1 antibody and Protein A/G agarose; lysates of differentiated HL-60 cells expressing CXCR2, vehicle or 100 ng/ml CXCL8 for 1 or 5 min; western blot for Cdc42, densitometry.
IQ motif containing GTPase activating protein 1 (IQGAP1), endogenous in differentiated HL-60 cells (human (endogenous in HL-60)), sequence (P46940 whole entry): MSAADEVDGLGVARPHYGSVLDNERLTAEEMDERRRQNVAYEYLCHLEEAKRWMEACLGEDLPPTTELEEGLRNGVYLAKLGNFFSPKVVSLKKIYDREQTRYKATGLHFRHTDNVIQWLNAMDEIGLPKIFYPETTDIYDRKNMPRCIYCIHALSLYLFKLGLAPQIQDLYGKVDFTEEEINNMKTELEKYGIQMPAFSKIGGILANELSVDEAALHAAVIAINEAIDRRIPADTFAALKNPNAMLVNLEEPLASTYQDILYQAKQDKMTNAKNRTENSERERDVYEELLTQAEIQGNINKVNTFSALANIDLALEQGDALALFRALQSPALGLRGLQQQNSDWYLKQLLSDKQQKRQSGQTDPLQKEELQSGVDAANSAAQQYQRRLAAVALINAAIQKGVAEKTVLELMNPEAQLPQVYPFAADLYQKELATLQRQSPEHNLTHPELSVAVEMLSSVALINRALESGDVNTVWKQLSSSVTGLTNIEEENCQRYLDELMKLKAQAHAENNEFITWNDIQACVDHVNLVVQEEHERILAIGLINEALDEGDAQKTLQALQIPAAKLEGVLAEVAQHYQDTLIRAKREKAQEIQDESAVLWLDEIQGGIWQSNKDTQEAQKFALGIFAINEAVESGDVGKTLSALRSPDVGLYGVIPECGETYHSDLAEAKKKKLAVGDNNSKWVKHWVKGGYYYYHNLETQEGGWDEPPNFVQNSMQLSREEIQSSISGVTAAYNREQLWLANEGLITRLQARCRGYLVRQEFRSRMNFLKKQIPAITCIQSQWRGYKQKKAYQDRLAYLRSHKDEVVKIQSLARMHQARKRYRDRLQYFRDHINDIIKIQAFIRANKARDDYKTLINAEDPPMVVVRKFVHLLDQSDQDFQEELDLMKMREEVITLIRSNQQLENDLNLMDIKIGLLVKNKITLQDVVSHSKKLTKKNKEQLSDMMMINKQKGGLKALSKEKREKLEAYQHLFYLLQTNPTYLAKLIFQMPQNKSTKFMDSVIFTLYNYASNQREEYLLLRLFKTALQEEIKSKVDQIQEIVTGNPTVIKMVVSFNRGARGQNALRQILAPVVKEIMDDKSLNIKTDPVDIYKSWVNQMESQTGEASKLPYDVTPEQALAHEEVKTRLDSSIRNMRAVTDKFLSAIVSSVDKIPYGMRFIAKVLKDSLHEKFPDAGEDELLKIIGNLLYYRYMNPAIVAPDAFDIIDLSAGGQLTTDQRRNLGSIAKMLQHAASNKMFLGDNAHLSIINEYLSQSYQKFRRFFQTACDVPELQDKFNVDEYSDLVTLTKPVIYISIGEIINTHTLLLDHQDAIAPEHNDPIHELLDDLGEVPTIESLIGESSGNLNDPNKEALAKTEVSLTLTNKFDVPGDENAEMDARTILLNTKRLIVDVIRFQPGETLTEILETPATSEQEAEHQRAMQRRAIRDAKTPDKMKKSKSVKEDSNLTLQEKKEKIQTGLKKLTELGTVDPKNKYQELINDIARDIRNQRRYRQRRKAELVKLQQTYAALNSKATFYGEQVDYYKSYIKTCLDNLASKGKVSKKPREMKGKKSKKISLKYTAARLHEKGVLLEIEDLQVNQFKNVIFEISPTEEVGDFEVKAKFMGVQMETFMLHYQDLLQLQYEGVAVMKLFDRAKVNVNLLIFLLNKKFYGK

Cdc42, endogenous in differentiated HL-60 cells expressing CXCR2, P60953 1-191 (natural protein; other documents disagree on this pair), sequence (P60953 whole entry): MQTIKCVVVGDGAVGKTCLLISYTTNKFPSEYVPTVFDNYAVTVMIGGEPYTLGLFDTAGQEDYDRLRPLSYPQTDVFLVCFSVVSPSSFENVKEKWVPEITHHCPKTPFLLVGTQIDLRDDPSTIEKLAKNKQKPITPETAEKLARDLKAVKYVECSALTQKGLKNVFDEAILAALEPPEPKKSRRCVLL

“Cdc42, endogenous in differentiated HL-60 cells expressing CXCR2, P60953 1-191 (natural protein; other documents disagree on this pair)” came in with a fold increase in co-immunoprecipitated Cdc42 after 1 min of CXCL8 over untreated cells of 1.36 fold.
